Results published in patent publication US20090148383A1.

Tests used:
[1] = biological target: activated, fibrinogen-bound GP IIb/IIIa on activated mouse platelets (mouse) (UniProt Q9QUM0); assay: histology of the wire-injured mouse femoral artery after bead perfusion
[2] = biological target: activated, fibrinogen-bound GP IIb/IIIa on activated mouse platelets (mouse) (UniProt Q9QUM0); assay: ex vivo 11.7 T MRI of the wire-injured mouse femoral artery after bead perfusion
[3] = biological target: recombinant tick anticoagulant peptide (rTAP) (UniProt P17726)
Chain of recombinant tick anticoagulant peptide (rTAP) (P17726 whole entry): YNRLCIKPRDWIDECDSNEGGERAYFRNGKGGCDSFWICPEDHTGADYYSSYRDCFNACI

Chain of activated, fibrinogen-bound GP IIb/IIIa on activated mouse platelets (mouse) (Q9QUM0 32-1033, chain 1 of 2): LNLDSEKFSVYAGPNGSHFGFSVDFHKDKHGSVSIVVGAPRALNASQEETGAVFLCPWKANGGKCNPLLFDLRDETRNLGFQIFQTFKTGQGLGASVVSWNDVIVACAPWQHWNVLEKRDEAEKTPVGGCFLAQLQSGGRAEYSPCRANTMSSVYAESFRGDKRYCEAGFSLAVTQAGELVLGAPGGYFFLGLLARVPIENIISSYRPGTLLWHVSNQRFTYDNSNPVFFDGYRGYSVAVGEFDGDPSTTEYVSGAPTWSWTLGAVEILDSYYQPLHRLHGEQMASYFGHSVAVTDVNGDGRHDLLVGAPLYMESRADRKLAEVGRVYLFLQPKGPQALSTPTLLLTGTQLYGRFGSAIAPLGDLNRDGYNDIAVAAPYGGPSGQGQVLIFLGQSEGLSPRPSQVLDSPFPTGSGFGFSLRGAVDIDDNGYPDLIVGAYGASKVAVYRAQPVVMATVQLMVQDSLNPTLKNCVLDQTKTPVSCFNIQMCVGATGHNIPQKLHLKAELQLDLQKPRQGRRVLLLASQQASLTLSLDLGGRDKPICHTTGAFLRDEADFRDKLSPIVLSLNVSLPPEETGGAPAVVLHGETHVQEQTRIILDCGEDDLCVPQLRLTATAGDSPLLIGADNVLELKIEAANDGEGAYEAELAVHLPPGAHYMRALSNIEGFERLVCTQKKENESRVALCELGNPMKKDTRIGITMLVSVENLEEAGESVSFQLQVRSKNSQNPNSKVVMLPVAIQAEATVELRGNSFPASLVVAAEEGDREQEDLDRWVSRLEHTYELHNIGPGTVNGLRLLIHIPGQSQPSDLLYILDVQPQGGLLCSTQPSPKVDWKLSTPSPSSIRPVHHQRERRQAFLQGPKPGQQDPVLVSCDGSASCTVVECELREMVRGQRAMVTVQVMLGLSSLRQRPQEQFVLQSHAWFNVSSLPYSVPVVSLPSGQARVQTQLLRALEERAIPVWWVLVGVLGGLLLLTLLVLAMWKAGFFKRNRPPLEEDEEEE
Chain of activated, fibrinogen-bound GP IIb/IIIa on activated mouse platelets (mouse) (O54890 26-787, chain 2 of 2, further chain): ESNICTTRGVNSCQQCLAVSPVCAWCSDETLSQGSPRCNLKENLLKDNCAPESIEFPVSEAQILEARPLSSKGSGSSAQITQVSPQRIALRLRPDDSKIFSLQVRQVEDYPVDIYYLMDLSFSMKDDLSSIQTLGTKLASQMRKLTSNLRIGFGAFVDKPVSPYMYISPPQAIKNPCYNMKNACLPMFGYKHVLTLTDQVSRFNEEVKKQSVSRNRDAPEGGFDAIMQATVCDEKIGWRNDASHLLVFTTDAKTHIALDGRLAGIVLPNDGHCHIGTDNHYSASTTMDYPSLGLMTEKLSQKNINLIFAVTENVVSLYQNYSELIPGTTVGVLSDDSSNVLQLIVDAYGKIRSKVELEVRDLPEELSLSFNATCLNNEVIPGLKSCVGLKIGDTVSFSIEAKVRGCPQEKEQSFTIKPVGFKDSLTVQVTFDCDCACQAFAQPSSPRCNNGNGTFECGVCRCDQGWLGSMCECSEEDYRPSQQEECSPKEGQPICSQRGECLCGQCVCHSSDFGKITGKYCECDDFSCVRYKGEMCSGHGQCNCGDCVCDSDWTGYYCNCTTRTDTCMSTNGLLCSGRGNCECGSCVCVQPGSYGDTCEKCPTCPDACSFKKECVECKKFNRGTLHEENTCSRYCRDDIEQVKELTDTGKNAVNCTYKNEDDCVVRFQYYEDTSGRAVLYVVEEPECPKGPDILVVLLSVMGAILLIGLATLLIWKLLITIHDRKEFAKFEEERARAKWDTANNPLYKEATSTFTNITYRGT

In the case of “scFv anti-LIBS (anti-LIBS single-chain antibody)”, the MPIO-binding (beads per section) (beads per section) [1] is reported as 9.98 and the luminal areas of low signal suggesting MPIO-accumulation (ex vivo MRI) [2] is reported as 23.7.
With “irrelevant single-chain antibody conjugated to MPIO (Control-MPIO) (scFv)” the MPIO-binding (beads per section) (beads per section) [1] was 0.5 and the luminal areas of low signal suggesting MPIO-accumulation (ex vivo MRI) [2] was 6.2.
factor Xa was tested, and the “cleavage of chromogenic substrate (spectrozyme FXa #222) by factor Xa (500 pM), OD at 405 nm” value [3] was “inhibition of factor Xa activity by rTAP, scFv anti-LIBS-TAP, and non-targeted mut-scFv-TAP, but not by scFv anti-LIBS”.
